Numbered stars: 1 amine (or outer) side, 2 acyl side, 3 side chain; on linkers, the order of the positions; unused ones are H or OH. Bridge positions count the residues as written; N and C are the ends. Side chains are listed from the residue outwards. Ends that are not written are not given here. * marks the point of attachment. C20 diacid = O=C(O)CCCCCCCCCCCCCCCCCCC(=O)*; γGlu = O=C(O)[C@H](CCC(=O)[*:2])N[*:1]
T1: rat calcitonin receptor (rat, UniProt P32214 25-516)
T1 construct: whole, on cells; Membranes prepared from transiently transfected BHK tk'ts 13 cells (Assay VIII); also called rCTR; rCT
T1 sequence (looked up): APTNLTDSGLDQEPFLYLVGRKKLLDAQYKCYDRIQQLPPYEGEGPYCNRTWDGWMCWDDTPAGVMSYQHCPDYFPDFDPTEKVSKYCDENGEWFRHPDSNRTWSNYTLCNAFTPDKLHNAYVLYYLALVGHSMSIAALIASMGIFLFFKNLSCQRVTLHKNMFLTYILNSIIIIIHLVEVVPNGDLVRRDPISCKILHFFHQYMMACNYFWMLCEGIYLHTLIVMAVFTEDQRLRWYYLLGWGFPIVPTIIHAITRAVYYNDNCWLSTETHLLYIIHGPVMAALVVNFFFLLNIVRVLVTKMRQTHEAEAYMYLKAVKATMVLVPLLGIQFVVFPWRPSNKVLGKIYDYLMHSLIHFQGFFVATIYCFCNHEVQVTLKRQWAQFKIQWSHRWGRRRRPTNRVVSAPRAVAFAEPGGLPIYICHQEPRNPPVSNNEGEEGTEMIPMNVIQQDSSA

T2: human calcitonin receptor (human, UniProt P30988 25-474)
T2 construct: whole, on cells; Membranes prepared from a stably transfected BHK cell line (Assay VII); also called hCTR; hCT
T2 sequence (looked up): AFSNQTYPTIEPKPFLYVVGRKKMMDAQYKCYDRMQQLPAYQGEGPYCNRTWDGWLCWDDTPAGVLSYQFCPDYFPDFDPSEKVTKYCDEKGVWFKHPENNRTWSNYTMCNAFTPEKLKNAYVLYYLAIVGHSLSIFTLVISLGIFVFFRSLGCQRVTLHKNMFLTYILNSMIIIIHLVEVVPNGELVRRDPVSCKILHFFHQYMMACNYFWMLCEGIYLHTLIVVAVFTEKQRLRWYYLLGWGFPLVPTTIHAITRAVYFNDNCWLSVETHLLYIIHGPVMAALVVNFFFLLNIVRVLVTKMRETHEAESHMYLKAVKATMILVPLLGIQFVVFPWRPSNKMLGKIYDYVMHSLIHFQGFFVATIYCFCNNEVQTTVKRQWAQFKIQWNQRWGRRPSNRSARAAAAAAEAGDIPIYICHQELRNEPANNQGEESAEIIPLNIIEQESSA

T3: rat amylin receptor (rat calcitonin receptor + rat RAMP 3) (rat, UniProt P32214 25-516; Q9JJ73 23-147)
T3 construct: whole, on cells; Membranes prepared from transiently transfected BHK tk'ts 13 cells (Assay VI); also called rAmylin-R; rAmylin
T3 sequence (looked up) 1: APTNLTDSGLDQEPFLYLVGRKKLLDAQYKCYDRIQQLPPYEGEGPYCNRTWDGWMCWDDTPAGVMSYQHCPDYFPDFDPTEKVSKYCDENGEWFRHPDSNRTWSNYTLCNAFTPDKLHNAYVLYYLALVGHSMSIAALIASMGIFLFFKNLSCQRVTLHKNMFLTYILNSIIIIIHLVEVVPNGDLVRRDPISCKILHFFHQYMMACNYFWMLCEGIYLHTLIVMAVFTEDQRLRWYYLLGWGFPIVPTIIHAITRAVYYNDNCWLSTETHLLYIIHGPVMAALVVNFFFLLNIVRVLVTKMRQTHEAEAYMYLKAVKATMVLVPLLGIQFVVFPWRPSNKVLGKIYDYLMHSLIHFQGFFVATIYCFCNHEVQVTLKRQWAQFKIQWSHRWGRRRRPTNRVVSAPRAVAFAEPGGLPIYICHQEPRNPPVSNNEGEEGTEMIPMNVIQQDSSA
T3 sequence (looked up) 2: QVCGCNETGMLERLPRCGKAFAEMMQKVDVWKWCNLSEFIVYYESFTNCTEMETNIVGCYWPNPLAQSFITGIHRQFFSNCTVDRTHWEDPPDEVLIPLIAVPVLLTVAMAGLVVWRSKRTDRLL


Tests used:
rat calcitonin receptor [1] = molecular target: T1, rat calcitonin receptor; assay: ratio of binding IC50s: rat calcitonin receptor / rat amylin receptor (reference)
[2] = molecular target: T2, human calcitonin receptor; assay: ratio of binding IC50s: human calcitonin receptor / human amylin receptor (reference)
Method in brief: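 Competition binding by SPA uses membrane preparations (35 ng/μL final) in pH 7.4 Hepes buffer with 1 mM CaCl2 and 5 mM MgCl₂. Incubation lasts 120 min at 25° C, and IC₅₀ comes from one-site fitting.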

rat calcitonin receptor [3] = molecular target: T1, rat calcitonin receptor; assay: SPA competition vs 125I-calcitonin, membranes of BHK cells with rat calcitonin receptor (Assay VIII)
[4] = molecular target: T3, rat amylin receptor (rat calcitonin …); assay: SPA competition vs 125I-rat amylin, membranes of BHK cells with rat calcitonin receptor + rat RAMP3 (Assay VI)

Binder	Ratio rCT/rAmylin binding (rat calcitonin receptor [1])	Ratio hCT/hAmylin binding [2]	IC50 (rat calcitonin receptor [3])	IC50 [4]
K([γGlu-C20 diacid])CNTATCATQRLANFLRHSSPNFGAIPSSTNVGRNTY-NH2 (disulfide 2-7; N-terminus assumed; SMILES CC[C@H](C)[C@H](NC(=O)[C@H](C)NC(=O)CNC(=O)[C@H](Cc1ccccc1)NC(=O)[C@H](CC(N)=O)NC(=O)[C@@H]1CCCN1C(=O)[C@H](CO)NC(=O)[C@H](CO)NC(=O)[C@H](Cc1c[nH]cn1)NC(=O)[C@H](CCCNC(=N)N)NC(=O)[C@H](CC(C)C)NC(=O)[C@H](Cc1ccccc1)NC(=O)[C@H](CC(N)=O)NC(=O)[C@H](C)NC(=O)[C@H](CC(C)C)NC(=O)[C@H](CCCNC(=N)N)NC(=O)[C@H](CCC(N)=O)NC(=O)[C@@H](NC(=O)[C@H](C)NC(=O)[C@@H]1CSSC[C@H](NC(=O)[C@@H](N)CCCCNC(=O)CC[C@H](NC(=O)CCCCCCCCCCCCCCCCCCC(=O)O)C(=O)O)C(=O)N[C@@H](CC(N)=O)C(=O)N[C@@H]([C@@H](C)O)C(=O)N[C@@H](C)C(=O)N[C@@H]([C@@H](C)O)C(=O)N1)[C@@H](C)O)C(=O)N1CCC[C@H]1C(=O)N[C@@H](CO)C(=O)N[C@@H](CO)C(=O)N[C@H](C(=O)N[C@@H](CC(N)=O)C(=O)N[C@H](C(=O)NCC(=O)N[C@@H](CCCNC(=N)N)C(=O)N[C@@H](CC(N)=O)C(=O)N[C@H](C(=O)N[C@@H](Cc1ccc(O)cc1)C(N)=O)[C@@H](C)O)C(C)C)[C@@H](C)O, Analogue of human amylin; also called compound 79) [N^ε1-[(4S)-4-carboxy-4-(19-carboxynonadecanoylamino)butanoyl]-[Arg17,Pro21,Pro27,Arg34]-h-amylin]	21.5	46.1	35.5 nM	1.65 nM
K([γGlu-C20 diacid])CNTATCATQRLANFLRHSSPNFGAIPSSTNVGHNTY-NH2 (disulfide 2-7; N-terminus assumed; SMILES CC[C@H](C)[C@H](NC(=O)[C@H](C)NC(=O)CNC(=O)[C@H](Cc1ccccc1)NC(=O)[C@H](CC(N)=O)NC(=O)[C@@H]1CCCN1C(=O)[C@H](CO)NC(=O)[C@H](CO)NC(=O)[C@H](Cc1c[nH]cn1)NC(=O)[C@H](CCCNC(=N)N)NC(=O)[C@H](CC(C)C)NC(=O)[C@H](Cc1ccccc1)NC(=O)[C@H](CC(N)=O)NC(=O)[C@H](C)NC(=O)[C@H](CC(C)C)NC(=O)[C@H](CCCNC(=N)N)NC(=O)[C@H](CCC(N)=O)NC(=O)[C@@H](NC(=O)[C@H](C)NC(=O)[C@@H]1CSSC[C@H](NC(=O)[C@@H](N)CCCCNC(=O)CC[C@H](NC(=O)CCCCCCCCCCCCCCCCCCC(=O)O)C(=O)O)C(=O)N[C@@H](CC(N)=O)C(=O)N[C@@H]([C@@H](C)O)C(=O)N[C@@H](C)C(=O)N[C@@H]([C@@H](C)O)C(=O)N1)[C@@H](C)O)C(=O)N1CCC[C@H]1C(=O)N[C@@H](CO)C(=O)N[C@@H](CO)C(=O)N[C@H](C(=O)N[C@@H](CC(N)=O)C(=O)N[C@H](C(=O)NCC(=O)N[C@@H](Cc1c[nH]cn1)C(=O)N[C@@H](CC(N)=O)C(=O)N[C@H](C(=O)N[C@@H](Cc1ccc(O)cc1)C(N)=O)[C@@H](C)O)C(C)C)[C@@H](C)O, Analogue of human amylin; also called compound 77) [N^ε1-[(4S)-4-carboxy-4-(19-carboxynonadecanoylamino)butanoyl]-[Arg17,Pro21,Pro27,His34]-h-amylin]	137	118	205 nM	1.5 nM
K([γGlu-C20 diacid])CNTATCATQRLAHFLRHSSPNFGAIPSSTNVGHNTY-NH2 (disulfide 2-7; N-terminus assumed; SMILES CC[C@H](C)[C@H](NC(=O)[C@H](C)NC(=O)CNC(=O)[C@H](Cc1ccccc1)NC(=O)[C@H](CC(N)=O)NC(=O)[C@@H]1CCCN1C(=O)[C@H](CO)NC(=O)[C@H](CO)NC(=O)[C@H](Cc1c[nH]cn1)NC(=O)[C@H](CCCNC(=N)N)NC(=O)[C@H](CC(C)C)NC(=O)[C@H](Cc1ccccc1)NC(=O)[C@H](Cc1c[nH]cn1)NC(=O)[C@H](C)NC(=O)[C@H](CC(C)C)NC(=O)[C@H](CCCNC(=N)N)NC(=O)[C@H](CCC(N)=O)NC(=O)[C@@H](NC(=O)[C@H](C)NC(=O)[C@@H]1CSSC[C@H](NC(=O)[C@@H](N)CCCCNC(=O)CC[C@H](NC(=O)CCCCCCCCCCCCCCCCCCC(=O)O)C(=O)O)C(=O)N[C@@H](CC(N)=O)C(=O)N[C@@H]([C@@H](C)O)C(=O)N[C@@H](C)C(=O)N[C@@H]([C@@H](C)O)C(=O)N1)[C@@H](C)O)C(=O)N1CCC[C@H]1C(=O)N[C@@H](CO)C(=O)N[C@@H](CO)C(=O)N[C@H](C(=O)N[C@@H](CC(N)=O)C(=O)N[C@H](C(=O)NCC(=O)N[C@@H](Cc1c[nH]cn1)C(=O)N[C@@H](CC(N)=O)C(=O)N[C@H](C(=O)N[C@@H](Cc1ccc(O)cc1)C(N)=O)[C@@H](C)O)C(C)C)[C@@H](C)O, Analogue of human amylin; also called compound 81)	42.9	87.2	61.1 nM	1.42 nM
K([γGlu-C20 diacid])CNTATCATQRLAHFLRHSSPNFGAIPSSTNVGRNTY-NH2 (disulfide 2-7; N-terminus assumed; SMILES CC[C@H](C)[C@H](NC(=O)[C@H](C)NC(=O)CNC(=O)[C@H](Cc1ccccc1)NC(=O)[C@H](CC(N)=O)NC(=O)[C@@H]1CCCN1C(=O)[C@H](CO)NC(=O)[C@H](CO)NC(=O)[C@H](Cc1c[nH]cn1)NC(=O)[C@H](CCCNC(=N)N)NC(=O)[C@H](CC(C)C)NC(=O)[C@H](Cc1ccccc1)NC(=O)[C@H](Cc1c[nH]cn1)NC(=O)[C@H](C)NC(=O)[C@H](CC(C)C)NC(=O)[C@H](CCCNC(=N)N)NC(=O)[C@H](CCC(N)=O)NC(=O)[C@@H](NC(=O)[C@H](C)NC(=O)[C@@H]1CSSC[C@H](NC(=O)[C@@H](N)CCCCNC(=O)CC[C@H](NC(=O)CCCCCCCCCCCCCCCCCCC(=O)O)C(=O)O)C(=O)N[C@@H](CC(N)=O)C(=O)N[C@@H]([C@@H](C)O)C(=O)N[C@@H](C)C(=O)N[C@@H]([C@@H](C)O)C(=O)N1)[C@@H](C)O)C(=O)N1CCC[C@H]1C(=O)N[C@@H](CO)C(=O)N[C@@H](CO)C(=O)N[C@H](C(=O)N[C@@H](CC(N)=O)C(=O)N[C@H](C(=O)NCC(=O)N[C@@H](CCCNC(=N)N)C(=O)N[C@@H](CC(N)=O)C(=O)N[C@H](C(=O)N[C@@H](Cc1ccc(O)cc1)C(N)=O)[C@@H](C)O)C(C)C)[C@@H](C)O, Analogue of human amylin; also called compound 85)	46.5	91.8	146 nM	3.14 nM
K([γGlu-C20 diacid])CNTATCATQRLANFLRHSSPNFGAIPSSTNVGSHTY-NH2 (disulfide 2-7; N-terminus assumed; SMILES CC[C@H](C)[C@H](NC(=O)[C@H](C)NC(=O)CNC(=O)[C@H](Cc1ccccc1)NC(=O)[C@H](CC(N)=O)NC(=O)[C@@H]1CCCN1C(=O)[C@H](CO)NC(=O)[C@H](CO)NC(=O)[C@H](Cc1c[nH]cn1)NC(=O)[C@H](CCCNC(=N)N)NC(=O)[C@H](CC(C)C)NC(=O)[C@H](Cc1ccccc1)NC(=O)[C@H](CC(N)=O)NC(=O)[C@H](C)NC(=O)[C@H](CC(C)C)NC(=O)[C@H](CCCNC(=N)N)NC(=O)[C@H](CCC(N)=O)NC(=O)[C@@H](NC(=O)[C@H](C)NC(=O)[C@@H]1CSSC[C@H](NC(=O)[C@@H](N)CCCCNC(=O)CC[C@H](NC(=O)CCCCCCCCCCCCCCCCCCC(=O)O)C(=O)O)C(=O)N[C@@H](CC(N)=O)C(=O)N[C@@H]([C@@H](C)O)C(=O)N[C@@H](C)C(=O)N[C@@H]([C@@H](C)O)C(=O)N1)[C@@H](C)O)C(=O)N1CCC[C@H]1C(=O)N[C@@H](CO)C(=O)N[C@@H](CO)C(=O)N[C@H](C(=O)N[C@@H](CC(N)=O)C(=O)N[C@H](C(=O)NCC(=O)N[C@@H](CO)C(=O)N[C@@H](Cc1c[nH]cn1)C(=O)N[C@H](C(=O)N[C@@H](Cc1ccc(O)cc1)C(N)=O)[C@@H](C)O)C(C)C)[C@@H](C)O, Analogue of human amylin; also called compound 60) [N^ε1-[(4S)-4-carboxy-4-(19-carboxynonadecanoylamino)butanoyl]-[Arg17,Pro21,Pro27,His35]-h-amylin]	122	45.2	26.3 nM	0.215 nM
